Reference: US20230192878A1, “METHODS, THERAPIES AND USES FOR TREATING CANCER” (PFIZER INC., priority 2020, published 2023)

Experiment: First in human Phase 1 clinical study: safety (CRS, DLT)
Assay type: in vivo
Excerpt: This Example illustrates an ongoing Phase 1 open-label, multicenter clinical study of PF-06863135 (BCMAxCD3 bispecific) as monotherapy and in combination with sasanlimab, lenalidomide or pomalidomide, in adult patients with advanced multiple myeloma who have relapsed from or are refractory to standard therapy. The study has been registered on ClinicalTrials.gov with identifier NCT03269136 and was first posted August 2017. Study results for Part 1 of the trial and additional arms for the study are described in this Example.
Part 1 of the Study is the […] single agent dose escalation arm at the dose levels of 0.1, 0.3, 1, 3, 10, 30, and 50 μg/kg Q1W by intravenous (IV) administration, and at the dose levels of 80, 130, 215, 360, 600 and 1000 μg/kg Q1W by subcutaneous (SC) administration. Upon reaching maximum tolerated dose (MTD)/maximum administered dose (MAD), patients can be treated at a dose level selected from the foregoing dose levels described in this paragraph, and below the MTD/MAD fora Q2W administration, both IV and SC, to further support the recommended phase 2 dose (RP2D) decision. For the study, dose limiting toxicity observation period is set at 21 days for Q1W dosing and 28 days for Q2W dosing. The treatment cycle, aka cycle, for Q1W dosing would be 3 weeks, and for Q2W dosing would be four weeks.
Clinical Outcome of Part 1 of the Study. As of 15 Apr. 2020, a total of 23 patients were enrolled in Part 1 of the study and had been treated with PF-06863135 administered intravenously (IV) at 0.1 (N=2), 0.3 (N=3), 1 (N=2), 3 (N=3), 10 (N=2), 30 (N=5), and 50 (N=6) μg/kg. As of Aug. 21, 2020, a total of 30 patients were enrolled in Part 1 of the study and had been treated with PF-06863135 administered subcutaneously (SC) at 80 (N=6), 130 (N=4), 215 (N=4), 360 (N=4), 600 (N=6) and 1000 (N=6) μg/kg. Safety and efficacy data were available for in 23 IV and 30 SC treated patients per IMWG (International Myeloma Working Group) criteria.
Part 1.1 of the Study is an alternative maintenance dose escalation arm for single agent PF-06863135. If excessive toxicity occurs or the maximum tolerated dose (MTD)/maximum administered dose (MAD) is reached at a dose level that is earlier than desired in Part 1 of the study described above, a priming dose will be administered one week prior to the day 1 cycle 1 administration of the dose (maintenance dose) at this dose level and for all subsequent dose levels in the dose escalation that may be initiated for Part 1.1. The priming dosing will be at a lower dose level than the maintenance dose.

[1] = 600 μg/kg priming, 1000 μg/kg Q1W or Q2W SC, N = 20

For “PF-06863135: heterodimeric humanized full-length bispecific antibody with one BCMA binding arm and one CD3 binding arm”, the “CRS observed, patient(s)” value (10 μg/kg IV cohort) was 1 (50.0%), the “CRS observed, patient(s)” value (30 μg/kg IV cohort) was 4 (80.0%) and the “Patients who experienced dose limiting toxicities (DLTs)” value (30 μg/kg IV cohort) was 1 patient. The “Patients in whom CRS also occurred after later doses (second to fourth)” value (50 μg/kg IV) was 3 patients, the “CRS observed, patient(s)” value (50 μg/kg IV cohort) was 6 (100.0%) and the “Patients who experienced dose limiting toxicities (DLTs)” value (50 μg/kg IV cohort) was 1 patient. The “CRS Grade 1 (patients)” value (80 μg/kg Q1W SC, N = 6) was 2, the “CRS Grade 2 (patients)” value (80 μg/kg Q1W SC, N = 6) was 1 and the “CRS Mean duration” value (80 μg/kg Q1W SC, N = 6) was 1 days. The “Patients with CRS” value (80 μg/kg Q1W SC, N = 6) was 3 (50%), the “CRS Grade 1 (patients)” value (130 μg/kg Q1W SC, N = 4) was 2 and the “CRS Grade 2 (patients)” value (130 μg/kg Q1W SC, N = 4) was 0. The “CRS Mean duration” value (130 μg/kg Q1W SC, N = 4) was 3 days, the “Patients with CRS” value (130 μg/kg Q1W SC, N = 4) was 2 (50%) and the “CRS Grade 1 (patients)” value (215 μg/kg Q1W SC, N = 4) was 3. The “CRS Grade 2 (patients)” value (215 μg/kg Q1W SC, N = 4) was 0, the “CRS Mean duration” value (215 μg/kg Q1W SC, N = 4) was 3 days and the “Patients with CRS” value (215 μg/kg Q1W SC, N = 4) was 3 (75%). The “CRS Grade 1 (patients)” value (360 μg/kg Q1W SC, N = 4) was 2, the “CRS Grade 2 (patients)” value (360 μg/kg Q1W SC, N = 4) was 1 and the “CRS Mean duration” value (360 μg/kg Q1W SC, N = 4) was 1.7 days. The “Patients with CRS” value (360 μg/kg Q1W SC, N = 4) was 3 (75%), the “CRS Grade 1 (patients)” value (600 μg/kg Q1W SC, N = 6) was 4 and the “CRS Grade 2 (patients)” value (600 μg/kg Q1W SC, N = 6) was 2. The “CRS Mean duration” value (600 μg/kg Q1W SC, N = 6) was 1.7 days, the “Patients with CRS” value (600 μg/kg Q1W SC, N = 6) was 6 (100%) and the “Decrease of medium duration of CRS by introducing priming dose” value (600 μg/kg priming then 1000 μg/kg vs 1000 μg/kg without priming, SC) was 50%. The “CRS Grade 1 (patients)” value [1] was 11, the “CRS Grade 2 (patients)” value [1] was 9 and the “CRS Mean duration” value [1] was 2 days. The “Patients with CRS” value [1] was 20 (100%), the “CRS Grade 1 (patients)” value (1000 μg/kg Q1W SC, N = 6) was 5 and the “CRS Grade 2 (patients)” value (1000 μg/kg Q1W SC, N = 6) was 1. For the same substance, the “CRS Mean duration” value (1000 μg/kg Q1W SC, N = 6) was 4 days, the “Patients with CRS” value (1000 μg/kg Q1W SC, N = 6) was 6 (100%) and the “Patients who experienced dose limiting toxicities (DLTs)” value (IV cohorts, 23 patients, febrile neutropenia Grade 3 and electrocardiogram QT prolongation Grade 1) was 2 patients. For the same substance, the “CRS onset after dosing” value (IV cohorts, each of the 11 patients with CRS) was no more than 2 days, the “Impact of dose frequency (Q1W v. Q2W) on the CRS” value (Part 1.1, 600 μg/kg priming, 1000 μg/kg SC) was “no impact” and the “Patients who experienced dose limiting toxicities (DLTs)” value (SC cohorts (80-1000 μg/kg)) was “No patients”. The “CRS onset after dosing” value (SC cohorts, primarily) was no more than 2 days, the “Patients who experienced maximum Grade 1 CRS” value (all IV treated patients) was 6 (26.1%) and the “Patients who experienced maximum Grade 2 CRS” value (all IV treated patients) was 5 (21.7%). The “Patients who experienced maximum Grade 1 CRS” value (all SC treated patients) was 18 (60.0%), the “Patients who experienced maximum Grade 2 CRS” value (all SC treated patients) was 5 (16.7%) and the “CRS severity in SC-treated vs IV-treated patients” value (despite higher overall dose exposure in SC-treated patients) was “less severe CRS”. For the same substance, the Toxicities (highest dose levels of 600 and 1000 μg/kg SC) was “tolerable and manageable”.
